Data on 4 molecules can be found in paper PMC13630248 (PLOS Biology, 2026).

In test [1] the target is RpYN06 Spike, full-length, on the cell surface (Betacoronavirus sp. RpYN06, strain …, strain). The test can be described thus: flow cytometry on cells. The settings on record: one partner purified.
Test [2] addresses T1, SARS-CoV-2 RBD (recombinant receptor binding domain of Spike) (SARS-CoV-2, UniProt P0DTC2). As to the kind of experiment: SPR. Conditions: both partners purified.
In test [3] the target is T1, SARS-CoV-2 RBD (recombinant receptor …). As to the kind of experiment: ELISA. Conditions: both partners purified.

B1: VA14_26 IgG (antibody, V domains shown)
VH: QVQLQQWGAGLLKPSDTLSLTCGISGGPFSGYYWSWIRQPPGKGLEWLGEINHSGITTYNPSLKSRGTISVDTSKRQISLKLASVTAADTAVYYCARFAYGDYGWDYSSDMDVWGKGTTVTVSS
VL: DIQLTQSPSTLSASVGDRVTITCRASQSISTWLAWHQQIPGKAPKLLIYRASTLQSGVPSRFSGSGSGTEFTLTISSLQPDDFATYYCQQYYSVRTFGQGTKVDIK
notes: copies: 2 + 2
As for B1, the binding result in test [1] and in test [2] was “binds” each time.

B2: V1WT_06 IgG (antibody, V domains shown)
VH: EVQLVQSGAEVKKPGASVKVSCKASGYTFSSHGISWVRQAPGQGLEWMGWISTYNGNTNSAQNLQGRVTMTADTSTSTAYMELRSLRSDDTAVYYCARGPWGYCSGTSCYYWTPDNPAYSYHGMDVWGQGTTVTVSS
VL: not shown
notes: copies: 2 + 2
On to B2, for which the binding result in test [1] is recorded as “binds”.

B3: V1WT_06 Fab (Fab, V domains shown)
VH: B2 VH
VL: not shown
On to B3, for which the binding result in test [3] is on record as “binds”.

B4: V1WT_41 IgG (antibody, V domains shown)
VH: QVQLQESGPGLVKPSETVSVTCTVSGGSITRSNYYWGWIRQPPGKGLEWIGSIFYNGNTNYNPSLKSRLTISVDTSKNQFSLKLSSVTAADTAVYYCARTAPYYYDRSGYYQKEEYFQRWGQGTLVTVSS
VL: EIVMTQSPSTLSASVGDRVTITCRASQSISTWLAWYQQKPGKAPNLLIYQASSLESGVPSRFSGSGSGTEFTLTISSLQPDDFATYYCQQYNNYPRTFGQGTKLEIK
notes: copies: 2 + 2
On to B4, for which the binding result in test [3] and in test [1] was “binds” throughout.
